Experimental data: the supplement of paper PMC10567573

B1: ZNF263 (parent)
chain: FAHSSNLLRHQRIHTGERPYKCPE

Variants of: B1
Experiment: protein stability index of a GFP-peptide fusion (GPS, HEK-293T) (PSI 1-6); higher = more stable
Settings: c terminus: a fixed tail appended
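Note: lentivirally expressed fusions sorted by FACS into six bins by GFP to DsRed ratio, PSI derived from sequencing read proportions per bin multiplied by bin number.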

Variant	protein stability index
N6E	2.62
N6C	1.4
N6Y	1.63
N6R	1.99
N6A	1.77
N6L	1.58
N6W	3.04
N6M	2.15
N6H	2
N6S	2.27
N6F	1.73
N6K	2.17
N6D	2.41
N6P	1.98
N6V	1.91
N6G	2.21
N6T	2.3
N6Q	2.49
N6I	1.56
F1R	3.46
F1T	3.67
F1L	2.67
F1V	3.01
F1K	3.54

Variant	protein stability index
F1W	3.29
F1I	3.77
F1N	3.9
F1S	3.34
F1Y	2.51
F1M	3.9
F1P	3.95
F1Q	4.13
F1H	4.22
L7A	2.83
L7R	2.58
L7D	2.75
L7G	2.43
L7N	2.93
L7C	2.08
L7W	2.48
L7F	1.84
L7V	2.68
L7Y	1.6
L7I	2.2
L7Q	3.21
L7P	2.02
L7H	2.94
L7T	2.45

Variant	protein stability index
L7E	3.14
L7K	2.54
L7S	2.52
L7M	2.39
L8D	3.05
L8E	3.3
L8H	2.01
L8Q	2.97
L8K	2.46
L8R	2.53
L8V	2.55
L8S	3.14
L8P	2.78
L8T	3.04
L8W	2.64
L8N	2.8
L8C	2.13
L8M	2.68
L8G	2.35
L8A	2.37
L8Y	2.78
L8F	1.8
L8I	2.71
H10A	2.38

Variant	protein stability index
H10C	2.76
A2N	3.34
A2Y	2.55
A2W	2.18
A2T	2.43
A2D	3.41
A2E	3.69
A2C	2.62
A2Q	2.73
A2K	3.08
A2H	1.82
A2L	2.57
A2S	3.19
A2V	3.61
A2F	2.17
A2R	2.82
A2I	1.89
A2P	2.67
A2G	3.17
A2M	2.83
R9S	2.63
R9F	2.06
R9C	2.68
R9A	2.39

Variant	protein stability index
R9G	2.45
R9L	2.88
R9D	2.62
R9H	2.85
R9I	2.21
R9V	2.58
R9Y	2.36
R9N	2.85
R9M	3.05
R9K	2.93
R9Q	2.87
R9P	3.19
R9E	3.23
R9T	2.9
S5D	2.87
S5F	1.94
S5P	2.25
S5L	1.96
S5T	2.7
S5Q	2.15
S5R	2.44
S5H	1.81
S5V	2.12
S5I	2.31

Variant	protein stability index
S5K	1.91
S5E	2.75
S5Y	2.13
S5G	1.74
S5W	2.24
S5M	2.28
S5N	2.3
S5C	2.02
S5A	2.04
H3K	1.86
H3L	2.61
H3E	1.98
H3C	2.07
H3A	2.15
H3S	2.22
H3Q	2.03
H3Y	1.96
H3G	2.12
H3P	2.5
H3I	2.34
H3R	2.04
H3M	2.41
H3W	1.25
H3D	1.94

Variant	protein stability index
H3F	1.89
H3T	2.06
H3V	1.86
H3N	2.48
S4P	2.62
S4A	2.15
S4F	2.55
S4E	3.05
S4Y	2.45
S4W	2.62
S4N	2.7
S4H	1.91
S4I	2.09
S4G	2.45
S4K	2.28
S4C	2.11
S4V	2.24
S4L	2.48
S4Q	2.06
S4M	1.86
S4T	2.13
S4R	2.07
S4D	2.94
